Experimental data taken from the nanobody polyreactivity screen of Harvey et al. (2022).

Assay: yeast display, Sf9 membrane polyspecificity reagent, FACS + sequencing; frameworks hold sequencing errors
Summary of the method: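 Genes from sorted yeast were amplified by colony PCR, read by MiSeq 2 × 250 sequencing and filtered on CDR length. These cells carried a synthetic nanobody library in Saccharomyces cerevisiae BJ5465 and were sorted by FACS into low and high (top ~1%) gates on anti-HA and streptavidin fluorescence. Polyreactivity is labelled according to the gate of origin.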

| Sequence | polyreactivity (PSR sort gate) |
| --- | --- |
| QVQLVESGGGLVQAGGSLRLSCAASGRIFTDYAMGWYRQAPGKEREFVAAINKSGGSTYYADSVKGRFTISRDNAKNTVYLQMNSLKPEDTAVYYCAKPHVIYPSYDYWGQGTQVTVSS | low polyreactivity |
| QVQLVESGGGLVQAGGSLRLSCAASGRIFTDYAMGWYRQAPGKERELVAAINFSGGSTYYADSVKGRFTISRDNAKNTVYLQMHSLKPEDTAVYYCAAQGYYDDMYYWGQGTQVTESS | high polyreactivity |
| QVQLVESGGGLVQAGGSLRLSCAASGRIFTDYAMGWYRQAPGKERELVASITERGGSTDYADSVKGRFTISRDNAKITVYLQMNSLKPEDTAVYYCNARDVTLWEDVYQQDGSGSWGLGTQVTVSS | low polyreactivity |
| QVQLVESGGGLVQAGGSLRLSCAASGRIFTGNALGWYRPAPGKERELVAVINRTGGSTYYADSVKGRFTISRDNAKNTVYLQMNSLKPEETAVYSCAAYVPWGWRYGYNYWGQGTQVTVSS | high polyreactivity |
| QVQLVESGGGLVQAGGSLRLSCAASGRIFTGNAMGWYRQAPGKERELVAAISASGGRTYYAYSVKGRFTISRDHAKNTVYLQMNSLKPEDTAVYYCAKVGRTAYTSTYTGVSAYDYWGQGTQVTVSS | high polyreactivity |
| QVQLVESGGGLVQAGGSLRLSCAASGRIFTGNAMGWYRQAPGKERELVAAITFSGGSTYYADSVKGRFTISRDNAKNTVYLQMNSLKPEDTAVYYCATRSAWYGNWYYYWGQGTQVTVSS | high polyreactivity |
| QVQLVESGGGLVQAGGSLRLSCAASGRIFTGNAMGWYRQAPGKERELVATISTGGSTNYADSVKGRFTISRDNAKNTVYLQMNSLKPEDTAVYYCAADTYYGYIIHVEYWGQGTQVTVSS | low polyreactivity |
| QVQLVESGGGLVQAGGSLRLSCAASGRIFTGNAMGWYRQAPGKERELVATITRRGGSTYYADSVKGRFTISRDHAKNTVYLQMNSLKPEDTAVYYCDANRLFSYDKYGYWGQGTQVTVSS | high polyreactivity |
| QVQLVESGGGLVQAGGSLRLSCAASGRIFTGNAMGWYRQAPGKEREWVATITRRGGSTYYADSVKGRFTISRDNAKNTVYLQMNSLKPEDTSVYYCAANRMFSNDKYGYWGQGTQVTVSS | high polyreactivity |
| QVQLVESGGGLVQAGGSLRLSCAASGRIFTGNAMGWYRQAPGKESQLVAAITRNGGSTYYADSVKGRFTISRDNEKYTVYLQMNRLKPEDTAVYYCNARYSTTYYGTIYRGMDYWGQGSQVTVSS | high polyreactivity |
| QVQLVESGGGLVQAGGSLRLSCAASGRIFTGNVMGWYRQAPGKERELVAAISYGGGSTNYADSVKGRFTISRDNAKNTVYLQMNSLKPEDTAVYYCAACIKRYLSYYTRYGYWGQGTQVTVSS | high polyreactivity |
| QVQLVESGGGLVQAGGSLRLSCAASGRIFTGYAMGWNRQAPGKERELVAAISRGGSTNYADSVKGRFTISRDNAKNSVYLQMNSLKPEDTAVYYCAAGVHWDRGDYWGQGTQVTVSS | low polyreactivity |
| QVQLVESGGGLVQAGGSLRLSCAASGRIFTGYAMGWYRQAPGKEREFVAAITGRGGSTYYADSVKGRFTISRDNAKNTVYLQMNSLKPEDTAVYYCNALPRSPWYYRGDYWGQGTQVTVSS | high polyreactivity |
| QVQLVESGGGLVQAGGSLRLSCAASGRIFTHNTMGWYRQAPGKERELVATIDSGGSTNYADSVNGRFTISRDNAKNTVNLQMNSLQPEDTAVYYCAARVRPWRYLMGYWGQGTQVTVSS | low polyreactivity |
| QVQLVESGGGLVQAGGSLRLSCAASGRIFTINAMGWYRQAPGKDRELVAAITGSAASTYYADSVKGRFTISRDNAKNTVYLQMYSLKPEDTAVYYSNARPAGRGYNYWGQGTQVTVSS | high polyreactivity |
| QVQLVESGGGLVQAGGSLRLSCAASGRIFTIYAMGWYRQAPGKERELVAAISDRGTRTYYADSVKGRFTISRDNAKNTVYLQMISLKPEVTAVYYCATDALYTYGYDYWGQGTQVTVSS | low polyreactivity |
| QVQLVESGGGLVQAGGSLRLSCAASGRIFTIYAMGWYRQAPGKERELVAAISGGGGITNYADSVKGRFTISRDNAKNTVYLQMNSLKPEDTAVYYCAATPRAPRTISLYNYWGQGTQVTVSS | high polyreactivity |
| QVQLVESGGGLVQAGGSLRLSCAASGRIFTIYAMGWYRQEPGKERELVAAITRGGNTNYADSVKGRFTISRDNAKNTVYLLMNSLKPEDTAVYYCAARANVYTKKRDYWGQGTQVTVSS | high polyreactivity |
| QVQLVESGGGLVQAGGSLRLSCAASGRIFTKYAMGWYRQAPGKERELVAAISRGGSNTYYADSVKGRFTISRDIAKNTVYLQMNSLKPEDTAVYYCNKPYSYVGWPGTGPDPKTVYYWGQGTQVTVSS | high polyreactivity |
| QVQLVESGGGLVQAGGSLRLSCAASGRIFTKYAMGWYRQAPGKERELVAAISWSGGRTYYADSVKGRFTISRDNAKNTVYLQMNSLKPEDTAVYYCAAESYKTATLGEDYWGQGTQVTVSS | high polyreactivity |
| QVQLVESGGGLVQAGGSLRLSCAASGRIFTNAMGWYTQAPGKQRELVAAISGGSNTYYADSVKGRFTISRDNANNTVYLQMNSLKPEDTAVYYCNTDDQWWDGGYDYWGQGTQVTVSS | low polyreactivity |
| QVQLVESGGGLVQAGGSLRLSCAASGRIFTPYAMGWYRQAPGKEREFVATISFRGDSTYYADSVKGRFTISRDNAKNTVYLQMNSLKPEDTAVYYCNAATNRRTSDYWGQGTQVTVSS | high polyreactivity |

| Sequence | polyreactivity (PSR sort gate) |
| --- | --- |
| QVQLVESGGGLVQAGGSLRLSCAASGRIFTQYTMGWYRQAPGKERELVAAINYSGGRTNYADSVKGRFTISRDIAKNTVYLQMNSLKPEDTAVYYCAAGYRRATYGYWGQGTQVTVSS | high polyreactivity |
| QVQLVESGGGLVQAGGSLRLSCAASGRIFTRNAMGWYRQAPGKERELVAAIRWSGDSTYYADSVKGRFTISRDNAKNTVYLQMNSLKPEDTAVYYCAADRQRSHRVGTKGHRVGYWGQGTQVTVSS | high polyreactivity |
| QVQLVESGGGLVQAGGSLRLSCAASGRIFTRNTMGWYRQAPGKERELVAAISSGASTYYADSVKGRFTISRDTAKNTVYLQMNSLKPEDTAVYYCATRGYARYWGLGTQVTVSS | low polyreactivity |
| QVQLVESGGGLVQAGGSLRLSCAASGRIFTRYAMGSYRQAPGKETEFVAAISGNGGSTYADSVKGRFTISRDNAKNTVYLQMNSLKPEDTAVYYCAAVPYGYGLASDSIFDYWGQGTQVTVSS | high polyreactivity |
| QVQLVESGGGLVQAGGSLRLSCAASGRIFTRYAMGWYRQAPGKERELVAAITSGGSTYYADSVKGRFSISRDNAKNTVYLQMNSLKPEDTAVYYCAAVVISSGVRYDYWGQGTQVTVSS | high polyreactivity |
| QVQLVESGGGLVQAGGSLRLSCAASGRIFTRYGMGWYRQAPGKEREFVAGISWSGGSTFYADSVKGRFTISRDNAKNTVYLQMHSLKPEDTAVYYCAARLYLRRPYEYWGQGTQVTVSS | high polyreactivity |
| QVQLVESGGGLVQAGGSLRLSCAASGRIFTRYTMGWYRQAPGKERELVASITSSGSSTYYADSVKGRFTISRDNAKNTVYLQMNSLKPEDTAVYYCAARSRLRYLYDYWGQGTQVTVSS | high polyreactivity |
| QVQLVESGGGLVQAGGSLRLSCAASGRIFTSNTMGWYRQAPGKESELVAAITCSGGSMYYADSVKGRFTISRDNAKNTVYLQMNSLKPEDTEVYDCAADTLGYHYWYDYWGQGTQVTVSS | low polyreactivity |
| QVQLVESGGGLVQAGGSLRLSCAASGRIFTSYAMGWYRQAPGKERELVAAINRGGSTYYADSVKGRFTISRDNAKNTVYLQMNSLKPEDTAVYYCNATPPYNPEFDYWGQGTQVTVSS | low polyreactivity |
| QVQLVESGGGLVQAGGSLRLSCAASGRIFTSYAMGWYRQAPGKERELVATITGSTASTYYADSVKGRFTISRDNAKNTVYLQMNSLKPEDTAVYYCAARSYSTYFRYYYWGQGTQVTVSS | high polyreactivity |
| QVQLVESGGGLVQAGGSLRLSCAASGRIFTTNAMGWYRQAPGKERELVAAITSGASTKYADSVKGRFTISRDNAKNTVYLQMNCLKPEDTAVYYCNAKRGVNLRSNWYSHLRMDHWGQGTQVTVSS | low polyreactivity |
| QVQLVESGGGLVQAGGSLRLSCAASGRIFTTYAKGWYRQAPGKERDLVAAISQNGGSTYYADSVKGRFTISRDNAKNTVYLPMNSLKPEDTAVYYCKAGAAGYYDYDYWGQGTQVTVSS | low polyreactivity |
| QVQLVESGGGLVQAGGSLRLSCAASGRIFTTYAMGWYRQAPGKERELVAAISQNGGSTYYADSVKGRFTISRDNAKNTVYLQMNSLKPEETAVYYCNAGPAGYYDYDYWGQGTQVTVSS | low polyreactivity |
| QVQLVESGGGLVQAGGSLRLSCAASGRIFTTYAMGWYRQAPGKERELVAAISRSGGSTYYADSVKGRFTISRDNAKNTVYLQMNSLKPEDTAVYYCAARRRQEHVGRSSYARYDYWGQGTQVTVSS | high polyreactivity |
| QVQLVESGGGLVQAGGSLRLSCAASGRIFTTYAMGWYRQAPGKERELVAAISRSGGSTYYADSVKGRFTISRDNAKNTVYLQMNSLKPEDTAVYYCAAVPTSNSFRSSFYYWGQGTQVTVSS | high polyreactivity |
| QVQLVESGGGLVQAGGSLRLSCAASGRIFTTYAMGWYRQAPGKERELVAAITSGGGTYYADSVKGRFTISRDNAKNTVYLQMNSLKPEDTAVYYCNADYSADYYWYYYWGQGTQVTVSS | low polyreactivity |
| QVQLVESGGGLVQAGGSLRLSCAASGRIFTTYAMGWYRQAPGKERELVASISWRVGSTYYADSVKGRFTISRDNAKITVYLQMNSLKPEETAVYYCAAVGGNYHASGLRYYWGQGNQVTVSS | low polyreactivity |
| QVQLVESGGGLVQAGGSLRLSCAASGRIFTVYAMGWYRQAPGKERELVAAISGRGGRTYYADSVKGRFTISRDNAKNTVYLQMNSLTPEDTAVYYCADYSYVRSSYEVEYDYWGQGTQVTVSS | low polyreactivity |
| QVQLVESGGGLVQAGGSLRLSCAASGRIFTWYAMGWYRQAPGKERELVAAISSAGRTYYADSVKGRFTISRDNAKNTVYLQMNSLKPEDTAVYYCAKVSKYRHFYTFDYWGQGTQVTVSS | high polyreactivity |
| QVQLVESGGGLVQAGGSLRLSCAASGRIFTYYAMGWYRQAPGKERELVAAISSGGSTYYADSVKGRFTISRDNAKNTVYLQMNSLKPEDTAVYYCAAEPWYYPYLSPTYGYWGHGTQVTVSS | low polyreactivity |
| QVQLVESGGGLVQAGGSLRLSCAASGRIFTYYAMGWYRQAPGKERELVATITRRGGRTYYADSVKGRFTISRDNAKNTVYLQMNSLKPEDTAVYYCAVVPETRYYYWGQGTLVTVSS | high polyreactivity |
